Measured values: patent US20220105122A1 (UNIVERSITY OF TOKYO, published 2022)

T1: human HVEM (Herpes Virus entry mediator) expressed on HEK293T cells (human, UniProt Q92956 39-283)
T1 construct: whole, on cells; In the cell ELISA the HVEM-introduced HEK293T cells were fixed with 4% paraformaldehyde; in the reporter assay live HVEM-expressing HEK293T cells were used; also called TNFRSF14; HVEM/TNFRSF14
T1 sequence (looked up): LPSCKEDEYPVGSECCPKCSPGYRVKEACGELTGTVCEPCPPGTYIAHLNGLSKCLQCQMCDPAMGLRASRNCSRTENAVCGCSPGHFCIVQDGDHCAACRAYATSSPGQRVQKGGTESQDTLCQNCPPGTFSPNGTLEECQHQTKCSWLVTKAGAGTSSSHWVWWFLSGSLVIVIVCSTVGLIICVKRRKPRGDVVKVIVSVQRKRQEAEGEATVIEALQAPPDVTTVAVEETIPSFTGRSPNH


Biological target: T1, human HVEM (Herpes Virus entry …)
Assay: cell ELISA on fixed HVEM-expressing HEK293T cells, His-tagged VHH detected with anti-His-tag mAb-HRP
From the text: The VHH antibodies prepared in the above item (1) were used to measure whether the VHH antibodies were detected in HVEM on the surface of the HVEM-expressing HEK293T cell membrane. Specifically, the HEK293T cells introduced with HVEM and the HEK293T cells not expressing HVEM as a negative control were each seeded at 1×10⁴ cells/well, fixed with 4% paraformaldehyde, and then reacted with the VHH antibodies added with 6×His tag. The horseradish peroxidase HRP-labeled anti-histidine tag antibody anti-His-tag mAb-HRP-DirecT (MBL) was reacted, and ELISA POD Substrate TMB Kit (Nacalai Tesque, Inc.) was used to measure an enzyme reaction of HRP with the substrate. The effect size data obtained for the antibody concentration was subjected to non-linear regression to a sigmoid curve based on the following formula: […]

EC50 [nM] | Binder
< 80 | anti-human HVEM alpaca VHH antibody #2 (VHH, Tested as VHH with a 6xHis tag; also called VHH #2; VHH(II); not shown: 6xHis tag added for the assay) VHH: QVQLVESGGGLVQPGGSLRLSCVASGRLFDTYTMAWYRLPPGKQRELVADISRTGFTNYADSVKGRFTISRDNAKNTVYLQMNSLKPDDTAHYRCKVREPATMYEYWGQGTQVTVSS
< 80 | anti-human HVEM alpaca VHH antibody #5 (VHH, Tested as VHH with a 6xHis tag; also called VHH #5; not shown: 6xHis tag added for the assay) VHH: QVQLVESGGGLVQPGGSLRLSCAASGFTFSSSHMTWVRQAPGKGLEWVSLINSSGRTAYVDSVAGRFTISRDNAKNTLYLQMTNLKPEDTAVYYCSKGGWDGLPSSSIRGQGTQVTVSS
< 80 | anti-human HVEM alpaca VHH antibody #3 (VHH, Tested as VHH with a 6xHis tag; also called VHH #3; VHH(I); not shown: 6xHis tag added for the assay) VHH: QVQLVESGGGSVQPGGSLRLSCAASGSIGSIHRWDWYRLCPGKQREWVATLNSEGGPTYADSVEGRFTISRDNAKNMVYLQMNSLKPEDTAVYRCSARTVPFEYWGRGTQVTVSS
< 80 | anti-human HVEM alpaca VHH antibody #4 (VHH, Tested as VHH with a 6xHis tag; also called VHH #4; not shown: 6xHis tag added for the assay) VHH: QVQLVESGGGLVQPGGSLRLSCAAAESMLSPYSMGWYRLPPGKQRELVASLGSGGRTTYADSVKGRFTISRDNAKNTAYLQMNSLKPEDTAVYRCNIRELLGRRYEYWSQGTQVTVSS
< 80 | anti-human HVEM alpaca VHH antibody #1 (VHH, Tested as VHH with a 6xHis tag; also called VHH #1; not shown: 6xHis tag added for the assay) VHH: QVQLVESGGGLVQPGGSLRLSCAASGFTFSTHAMSWYRQAPGKERELVAHISSTGGSTNYADSVKGRFTISRDNAKNTVYLQMNSLKPEDTAVYRCNARDWYEYWGRGTQVTVSS
